In patent US20190300618A1 (Merck Sharp & Dohme, published 2019):
Numbering of substitutions follows the chain as printed. Each block holds one molecule with its values, some of them ahead of it.

Key:
Assay in all cases: flow cytometry, CHO-K1; sub-column 1 of 2
R10A = target: T1, R10A
T1 construct: also called hCD27 R10A
T1 receptor: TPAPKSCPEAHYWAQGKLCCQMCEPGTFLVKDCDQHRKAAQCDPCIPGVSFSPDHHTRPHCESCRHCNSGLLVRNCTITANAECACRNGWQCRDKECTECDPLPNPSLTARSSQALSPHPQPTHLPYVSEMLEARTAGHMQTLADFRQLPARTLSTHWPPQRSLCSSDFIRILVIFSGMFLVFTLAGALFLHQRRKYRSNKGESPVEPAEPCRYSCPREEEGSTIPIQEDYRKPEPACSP

W13A = target: T2, W13A
T2 construct: also called hCD27 W13A
T2 receptor: T1 receptor with A10R, W13A

V30A = target: T3, V30A
T3 construct: also called hCD27 V30A
T3 receptor: T1 receptor with A10R, V30A

D43A = target: T4, D43A
T4 construct: also called hCD27 D43A
T4 receptor: T1 receptor with A10R, D43A

V49A = target: T5, V49A
T5 construct: also called hCD27 V49A
T5 receptor: T1 receptor with A10R, V49A

R87A = target: T6, R87A
T6 construct: also called hCD27 R87A
T6 receptor: T1 receptor with A10R, R87A

G89A = target: T7, G89A
T7 construct: also called hCD27 G89A
T7 receptor: T1 receptor with A10R, G89A

W90A = target: T8, W90A
T8 construct: also called hCD27 W90A
T8 receptor: T1 receptor with A10R, W90A

Q91A = target: T9, Q91A
T9 construct: also called hCD27 Q91A
T9 receptor: T1 receptor with A10R, Q91A

E9A = target: T10, E9A
T10 construct: also called hCD27 E9A
T10 receptor: T1 receptor with E9A, A10R

% of WT hCD27 binding (geo mean FITC) (R10A): 107%
% of WT hCD27 binding (geo mean FITC) (W13A): 89.1%
% of WT hCD27 binding (geo mean FITC) (V30A): 161%
% of WT hCD27 binding (geo mean FITC) (D43A): 195%
% of WT hCD27 binding (geo mean FITC) (V49A): 144%
% of WT hCD27 binding (geo mean FITC) (R87A): 143%
% of WT hCD27 binding (geo mean FITC) (G89A): 100%
% of WT hCD27 binding (geo mean FITC) (W90A): 123%
% of WT hCD27 binding (geo mean FITC) (Q91A): 146%
% of WT hCD27 binding (geo mean FITC) (E9A): 98.2%
Molecule: 1A4 (mouse IgG1) (antibody)

% of WT hCD27 binding (geo mean FITC) (R10A): 104%
% of WT hCD27 binding (geo mean FITC) (W13A): 90.7%
% of WT hCD27 binding (geo mean FITC) (V30A): 166%
% of WT hCD27 binding (geo mean FITC) (D43A): 201%
% of WT hCD27 binding (geo mean FITC) (V49A): 151%
% of WT hCD27 binding (geo mean FITC) (R87A): 153%
% of WT hCD27 binding (geo mean FITC) (G89A): 116%
% of WT hCD27 binding (geo mean FITC) (W90A): 130%
% of WT hCD27 binding (geo mean FITC) (Q91A): 149%
% of WT hCD27 binding (geo mean FITC) (E9A): 96.6%
Molecule: 9F4 (mouse IgG2a) (antibody)

% of WT hCD27 binding (geo mean FITC) (R10A): 103%
% of WT hCD27 binding (geo mean FITC) (W13A): 86%
% of WT hCD27 binding (geo mean FITC) (V30A): 170%
% of WT hCD27 binding (geo mean FITC) (D43A): 194%
% of WT hCD27 binding (geo mean FITC) (V49A): 147%
% of WT hCD27 binding (geo mean FITC) (R87A): 153%
% of WT hCD27 binding (geo mean FITC) (G89A): 113%
% of WT hCD27 binding (geo mean FITC) (W90A): 126%
% of WT hCD27 binding (geo mean FITC) (Q91A): 148%
% of WT hCD27 binding (geo mean FITC) (E9A): 96.7%
B1: Antibody hCD27.131A (mouse parental 131A) (antibody, V domains shown)
VH: QIQLVQSGPELKKPGETVKISCKASGYTFTNYGMNWVKQAPGKGLKWMGWINTNTGEPTYAEEFKGRFAFSLETSATTAYLQINNLKNEDTATYFCAREGDAMDYWGQGTSVTVSS
VL: QIVLTQSPAIMSASPGEKVTMTCSASSSVSYMHWYQQKSGTSPKRWIYDTSKLASGVPARFSGSGSGTSYSLTISSMEAEDAATYYCQQWNSYPFTFGSGTKLEIK
notes: mouse IgG1; also called mouse hCD27.131A
